Assay results published in patent US20200399308A1, “COMPOUNDS AND METHODS FOR ELICITING ANTIMICROBIAL ACTIVITY” (Technion Research & Development Foundation Limited, priority 2018, published 2020).

Columns and labels:
Escherichia coli 25922 = assay: Serum survival assay; format: cell-based; settings: mouse serum; 13 μM lactoferrin with 10 μM Compound B
Protocol: (§1) Serum survival assays were performed using fresh serum from normal mice or human serum from the Israel Blood Bank; samples were pooled and stored in aliquots at −80° C. until use. Time-dependent killing was determined in a final volume of 125 μL consisting of 112.5 μL of serum containing either a tested compound, egg white lysozyme (Amresco), lactoferrin (Vivinal lactoferrin FD; DMV International, Delhi, N.Y.), anti-murine C5/C5a antibody (25 μg/mL; ab194637; Abcam), or their combination, as specified. These solutions were supplemented with 12.5 μL of bacteria suspended in PBS at the desired concentration. After the specified time points of exposure, cultures were subjected to serial 10-fold dilutions in saline (0.85% NaCl) and plated for bacterial enumeration after incubation at 37° C. for an additional 24 hours. In heat-treated experiments, sera were incubated at 56° C. for 30 minutes for protein inactivation. Data were obtained from 3 independent experiments.

[1] = test system: Klebsiella pneumoniae 1287; assay: Serum survival assay; format: cell-based; settings: mouse serum; 13 μM lactoferrin with 10 μM Compound B
Protocol: as §1

B1: lactoferrin: host defense antimicrobial protein (Vivinal lactoferrin FD) (protein, UniProt P24627 20-708, looked up)
Lactotransferrin: APRKNVRWCTISQPEWFKCRRWQWRMKKLGAPSITCVRRAFALECIRAIAEKKADAVTLDGGMVFEAGRDPYKLRPVAAEIYGTKESPQTHYYAVAVVKKGSNFQLDQLQGRKSCHTGLGRSAGWIIPMGILRPYLSWTESLEPLQGAVAKFFSASCVPCIDRQAYPNLCQLCKGEGENQCACSSREPYFGYSGAFKCLQDGAGDVAFVKETTVFENLPEKADRDQYELLCLNNSRAPVDAFKECHLAQVPSHAVVARSVDGKEDLIWKLLSKAQEKFGKNKSRSFQLFGSPPGQRDLLFKDSALGFLRIPSKVDSALYLGSRYLTTLKNLRETAEEVKARYTRVVWCAVGPEEQKKCQQWSQQSGQNVTCATASTTDDCIVLVLKGEADALNLDGGYIYTAGKCGLVPVLAENRKSSKHSSLDCVLRPTEGYLAVAVVKKANEGLTWNSLKDKKSCHTAVDRTAGWNIPMGLIVNQTGSCAFDEFFSQSCAPGADPKSRLCALCAGDDQGLDKCVPNSKEKYYGYTGAFRCLAEDVGDVAFVKNDTVWENTNGESTADWAKNLNREDFRLLCLDGTRKPVTEAQSCHLAVAPNHAVVSRSDRAAHVKQVLLHQQALFGKNGKNCPDKFCLFKSETKNLLFNDNTECLAKLGGRPTYEEYLGTEYVTAIANLKKCSTSPLLEACAFLTR
With B1 the “sensitization by Compound B to lactoferrin” value (Escherichia coli 25922) was “no significant sensitization” and the “sensitization by Compound B to lactoferrin” value [1] was “no significant sensitization”.
